Experimental data as given in publication PMC9381590.

Biological target: endogenous PKM2 (human (endogenous in CRC cells)) (UniProt P14618)
Test: not stated; monomeric, dimeric and tetrameric forms of endogenous PKM2 in HCT116 cells with or without DDX39B overexpression (Supplementary Fig. 7c)

endogenous PKM2, P14618 1-531 (natural protein; other documents disagree on this pair), sequence (P14618 whole entry): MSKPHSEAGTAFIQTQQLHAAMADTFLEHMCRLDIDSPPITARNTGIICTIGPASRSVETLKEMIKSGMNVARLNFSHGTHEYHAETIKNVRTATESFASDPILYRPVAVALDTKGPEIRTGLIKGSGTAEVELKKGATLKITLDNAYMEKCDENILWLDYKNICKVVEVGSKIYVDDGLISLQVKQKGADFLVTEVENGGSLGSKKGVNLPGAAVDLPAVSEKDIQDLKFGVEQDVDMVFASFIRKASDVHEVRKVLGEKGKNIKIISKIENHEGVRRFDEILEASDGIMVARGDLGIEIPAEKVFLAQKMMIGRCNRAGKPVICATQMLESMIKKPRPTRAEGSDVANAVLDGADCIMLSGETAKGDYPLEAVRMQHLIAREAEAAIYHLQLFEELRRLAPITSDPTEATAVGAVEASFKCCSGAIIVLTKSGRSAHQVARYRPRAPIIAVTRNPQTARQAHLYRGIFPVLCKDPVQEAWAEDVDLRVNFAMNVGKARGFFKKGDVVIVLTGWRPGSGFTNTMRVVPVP

- stoichiometry N: 2
Substance: endogenous PKM2, P14618 1-531 (natural protein; other documents disagree on this pair)
